This passage reports stoichiometry N results from paper PMC4416707.

Experiment in all cases: SEC; size exclusion chromatography of the purified LOV constructs under dark state conditions; apparent MW compared with the expected monomer MW of 17 kDa
Experiment [1] concerns the target McLOVn-TF residues 337-490 (isolated LOV domain of the Methylocystis LOV transcription factor) (Methylocystis Rockwall).
Experiment [2] deals with Methylocystis short LOV protein McLOVn (Methylocystis Rockwall).
Experiment [3] concerns the target Methylocystis rosea short LOV protein McLOVr (Methylocystis rosea).

Consider “McLOVn-TF residues 337-490 (isolated LOV domain of the Methylocystis LOV transcription factor) (domain or fragment)”, for which, in experiment [1], the stoichiometry N was found to be 2. For the substance “Methylocystis short LOV protein McLOVn (natural protein)”, in experiment [2], the stoichiometry N was 2. As for “Methylocystis rosea short LOV protein McLOVr (natural protein)”, the stoichiometry N in experiment [3] was determined as 2.
